From patent US20240025971A1 (ATRECA, published 2024)
Numbering of substitutions follows the chain as printed.

What was measured:
Test in all cases: cell-based or functional assay
[1] = biological target: SARS-CoV-2 Delta-plus (B.1.617.2.1) full-length Spike protein (SARS-CoV-2, UniProt P0DTC2 14-1273)
[2] = biological target: SARS-CoV-2 Delta (B.1.617.2) full-length Spike protein (SARS-CoV-2, UniProt P0DTC2 14-1273)
[3] = biological target: SARS-CoV-2 Alpha (B.1.1.7) full-length Spike protein (SARS-CoV-2, UniProt P0DTC2 14-1273)
[4] = biological target: SARS-CoV-2 Wuhan D614G full-length Spike protein (SARS-CoV-2, UniProt P0DTC2 14-1273)
[5] = biological target: SARS-CoV-2 Beta (B.1.351) full-length Spike protein (SARS-CoV-2, UniProt P0DTC2 14-1273)
[6] = biological target: SARS-CoV-2 Epsilon (B.1.427/9) full-length Spike protein (SARS-CoV-2, UniProt P0DTC2 14-1273)
[7] = biological target: SARS-CoV-2 Gamma (P.1.B.1.1.28) full-length Spike protein (SARS-CoV-2, UniProt P0DTC2 14-1273)

B1: AB-009271 (antibody, V domains shown)
VH: EVQLVESGGGLIQPGGSLRLSCAASGFIVSSNYMSWVRQAPGKGLEWVSVIYSGGSTYYADSVKGRFTISRDNSKNTLYLQMNSLRAEDTAVYYCARDYGDFYFDYWGQGTLVTVSS
VL: EIVMTQSPATLSVSPGERATLSCRASQSVSSNLAWYQQKPGQAPRLLIYGASTRATGIPARFSGSGSGTEFTLTISSLQSEDFAVYYCQQYYNWPRTFGQGTKVEIK
notes: human IgG1
- Pseudovirus Neutralization [1]: > 50 µg/mL
- Pseudovirus Neutralization [2]: 0.012 µg/mL
- Pseudovirus Neutralization [3]: 0.275 µg/mL
- Pseudovirus Neutralization [4]: 0.036 µg/mL
- Pseudovirus Neutralization [5]: > 50 µg/mL
- Pseudovirus Neutralization [6]: 0.028 µg/mL
- Pseudovirus Neutralization [7]: > 50 µg/mL

B2: AB-009613 (antibody, V domains shown)
VH: B1 VH with I28T
VL: not shown
notes: human IgG1
- Pseudovirus Neutralization [1]: > 50 µg/mL
- Pseudovirus Neutralization [2]: 0.101 µg/mL
- Pseudovirus Neutralization [3]: 7.23 µg/mL
- Pseudovirus Neutralization [4]: 0.83 µg/mL
- Pseudovirus Neutralization [5]: > 50 µg/mL
- Pseudovirus Neutralization [6]: 1.16 µg/mL
- Pseudovirus Neutralization [7]: > 50 µg/mL

B3: AB-010020 (antibody, V domains shown)
VH: QMQLVQSGPEVKKPGTSVKVSCKASGFTFTSSAVQWVRQARGQRLEWIGWIVVGSGNTNYAQKFQERVTITRDMSTSTAYMELSSLRSEDTAVYYCAAPACSSTSCYDGFDIWGQGTMVTVSS
VL: not shown
notes: human IgG1
- Pseudovirus Neutralization [1]: 0.001 µg/mL
- Pseudovirus Neutralization [2]: 0.003 µg/mL
- Pseudovirus Neutralization [3]: 0.013 µg/mL
- Pseudovirus Neutralization [4]: 0.003 µg/mL
- Pseudovirus Neutralization [5]: 0.018 µg/mL
- Pseudovirus Neutralization [6]: 0.003 µg/mL
- Pseudovirus Neutralization [7]: 0.0114 µg/mL

B4: AB-010021 (antibody, V domains shown)
VH: B3 VH with P99V, A100Y, S103G, T104G, Y107L, G109A
VL: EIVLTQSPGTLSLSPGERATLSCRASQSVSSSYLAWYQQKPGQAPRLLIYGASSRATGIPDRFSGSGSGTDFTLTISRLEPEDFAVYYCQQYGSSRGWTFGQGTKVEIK
notes: human IgG1; also called AB-0010021
- Pseudovirus Neutralization [1]: 0.078 µg/mL
- Pseudovirus Neutralization [2]: 0.574 µg/mL
- Pseudovirus Neutralization [3]: 2.69 µg/mL
- Pseudovirus Neutralization [4]: 0.7 µg/mL
- Pseudovirus Neutralization [5]: 8.27 µg/mL
- Pseudovirus Neutralization [6]: 0.629 µg/mL
- Pseudovirus Neutralization [7]: 5.39 µg/mL

B5: AB-009610 (antibody, V domains shown)
VH: QVQLVQSGAEVKKPGSSVKVSCKASGGTFSNYAISWVRQAPGQGLEWMGRIIPILGIANYAQKFQGRVTITADKSTSTAYMELSSLRSEDTAVYYCATTPYYYDSSGYYLDYWGQGTLVTVSS
VL: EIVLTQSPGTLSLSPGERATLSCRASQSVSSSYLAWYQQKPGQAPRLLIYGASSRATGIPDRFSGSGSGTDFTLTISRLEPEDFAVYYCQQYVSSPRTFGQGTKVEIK
notes: human IgG1
- Pseudovirus Neutralization [1]: > 50 µg/mL
- Pseudovirus Neutralization [2]: > 50 µg/mL
- Pseudovirus Neutralization [3]: 2.84 µg/mL
- Pseudovirus Neutralization [4]: 2.21 µg/mL
- Pseudovirus Neutralization [5]: > 50 µg/mL
- Pseudovirus Neutralization [6]: > 50 µg/mL
- Pseudovirus Neutralization [7]: > 50 µg/mL
